In patent US7597889:

What was measured:
human FcγRI (human) [1] = molecular target: human FcγRI (human) (UniProt P12314); experiment: fluorescent staining of FcγRI transfectants, flow cytometry
FcγRIIa 131H/H (human) = FcγRIIa 131H/H (human) (UniProt P12318); experiment: staining of 3T6+FcγRIIa 131H/H cells with complexed Ab (summary)
human FcγRI (human) [2] = molecular target: human FcγRI (human) (UniProt P12314); experiment: rosetting after centrifuging RBC coated with 1 µg/ml Fog-1 G1 together with B2KA cells
human FcγRI (human) [3] = molecular target: human FcγRI (human) (UniProt P12314); experiment: rosetting of FcγRI-bearing B2KA cells by R2R2 RBC coated with Ab; coating concentration

Sequence of UniProt P12314 (P12314 16-374): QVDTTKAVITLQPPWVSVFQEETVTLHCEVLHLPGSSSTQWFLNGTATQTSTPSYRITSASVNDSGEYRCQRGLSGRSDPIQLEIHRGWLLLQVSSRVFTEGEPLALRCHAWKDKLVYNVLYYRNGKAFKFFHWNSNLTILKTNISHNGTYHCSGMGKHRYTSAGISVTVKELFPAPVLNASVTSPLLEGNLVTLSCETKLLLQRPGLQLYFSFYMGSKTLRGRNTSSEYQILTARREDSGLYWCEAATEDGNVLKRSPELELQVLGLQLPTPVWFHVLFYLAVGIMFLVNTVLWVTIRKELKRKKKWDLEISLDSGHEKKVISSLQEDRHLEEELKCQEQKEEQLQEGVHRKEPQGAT
Sequence of UniProt P12318 (P12318 34-317): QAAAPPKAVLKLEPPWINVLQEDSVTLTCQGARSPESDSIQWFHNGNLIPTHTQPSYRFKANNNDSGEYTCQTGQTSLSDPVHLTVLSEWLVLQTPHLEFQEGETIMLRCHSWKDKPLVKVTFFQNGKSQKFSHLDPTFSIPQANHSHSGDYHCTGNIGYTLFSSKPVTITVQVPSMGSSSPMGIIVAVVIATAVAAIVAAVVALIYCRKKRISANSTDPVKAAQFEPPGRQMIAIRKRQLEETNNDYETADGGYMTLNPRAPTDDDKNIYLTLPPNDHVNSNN

How did the fold reduction of binding against the parent subclass (human FcγRI (human) [1]) turn out when CAMPATH-1 G1Δab (antibody) was run?
Its fold reduction of binding against the parent subclass is > 10000 fold.

For Fog-1 G1Δb (antibody), which fold reduction of binding against the parent subclass (human FcγRI (human) [1]) is on record?
The fold reduction of binding against the parent subclass was > 10000 fold.

And the fold lower activity than IgG1 (FcγRIIa 131H/H (human))?
Its fold lower activity than IgG1 is 50 fold.

For Fog-1 G4Δc (antibody), which fold reduction of binding against the parent subclass (human FcγRI (human) [1]) is on record?
The fold reduction of binding against the parent subclass was > 10000 fold.

For CAMPATH-1 G1Δac (antibody), which fold reduction of binding against the parent subclass (human FcγRI (human) [1]) is on record?
The fold reduction of binding against the parent subclass was > 10000 fold.

How did the fold reduction of binding against the parent subclass (human FcγRI (human) [1]) turn out when CAMPATH-1 G4Δc (antibody) was run?
Its fold reduction of binding against the parent subclass is > 10000 fold.

With Fog-1 G1Δab (antibody) as the substance, how does the fold reduction of binding against the parent subclass (human FcγRI (human) [1]) read?
Its fold reduction of binding against the parent subclass is > 10000 fold.

With CAMPATH-1 G4Δb (antibody) as the substance, how does the fold reduction of binding against the parent subclass (human FcγRI (human) [1]) read?
Its fold reduction of binding against the parent subclass is > 10000 fold.

Which results are given for Fog-1 G1Δc (antibody)?
fold reduction of binding against the parent subclass (human FcγRI (human) [1]): > 10000 fold; fold lower activity than IgG1 (FcγRIIa 131H/H (human)): 10 fold

For Fog-1 G1 (antibody), which percent of B2KA cells with rosettes (human FcγRI (human) [2]) is on record?
Its percent of B2KA cells with rosettes is 95%.

What about the EC50 (human FcγRI (human) [3]) of the same substance?
The EC50 was 0.1 µg/mL.

Which fold reduction of binding against the parent subclass (human FcγRI (human) [1]) does the source give for CAMPATH-1 G1Δb (antibody) here?
The fold reduction of binding against the parent subclass was > 10000 fold.

How did the fold reduction of binding against the parent subclass (human FcγRI (human) [1]) turn out when Fog-1 G1Δac (antibody) was run?
The fold reduction of binding against the parent subclass was > 10000 fold.

Which fold reduction of binding against the parent subclass (human FcγRI (human) [1]) does the source give for Fog-1 G4Δb (antibody) here?
The fold reduction of binding against the parent subclass was > 10000 fold.

CAMPATH-1 G1Δc (antibody) was tested. Which fold reduction of binding against the parent subclass (human FcγRI (human) [1]) did it give?
The fold reduction of binding against the parent subclass was > 10000 fold.

How did the EC50 (human FcγRI (human) [3]) turn out when Fog-1 G1Δa (antibody) was run?
The EC50 was 0.1 µg/mL.
